The source of these data is article PMC6237427.

pKd: −log10 of the molar value.

In experiment [1] the target is germline-reverted VRC01. Description: BLI; Octet Red, 29°C, shaking 500 r.p.m.; germline-reverted VRC01 IgG immobilised on anti-AHC biosensors (40 μg/ml in PBS); Env gp140 trimers in 2-fold dilution series (4 μM to >250 nM) in kinetic buffer (1X PBS pH7.4, 0.1% BSA, 0.02% Tween 20, 0.05% NaN3); 300 s association, 600 s dissociation; 1:1 binding model; relative apparent affinities. (In BLI a coated tip is dipped into the sample, and binding shifts an interference pattern.)

For experiment [2], the target named is HIV-1 426c.TM4 (S278R.G471S.N460D.N463D) Env on Env-pseudotyped virus produced in 293S GnT1- cells (HIV-1).
Experiment [3] has as its target HIV-1 426c.TM4 (S278R.G471S.N460D.N463D) Env on Env-pseudotyped virus produced in 293T cells (HIV-1).
For experiment [4], the target named is HIV-1 426c Env on Env-pseudotyped virus produced in 293S GnT1- cells (HIV-1).
The target of experiment [5] is HIV-1 426c.TM1 (N276D.N460D.N463D) Env on Env-pseudotyped virus produced in 293S GnT1- cells (HIV-1).
In experiment [6] the target is HIV-1 426c.SM (N276D) Env on Env-pseudotyped virus produced in 293S GnT1- cells (HIV-1).
Experiment [7] concerns the target HIV-1 426c.DM (N460D.N463D) Env on Env-pseudotyped virus produced in 293S GnT1- cells (HIV-1).
The target of experiment [8] is HIV-1 TRO.11 Env on Env-pseudotyped virus produced in 293T cells (HIV-1).
In experiment [9] the target is HIV-1 TRO.11 Env on Env-pseudotyped virus produced in 293S GnT1- cells (HIV-1).
For experiment [10], the target named is HIV-1 426c.DM (N460D.N463D) Env on Env-pseudotyped virus produced in 293T cells (HIV-1).
Experiment [11] addresses HIV-1 426c.SM (N276D) Env on Env-pseudotyped virus produced in 293T cells (HIV-1).
Experiment [12] concerns the target HIV-1 426c Env on Env-pseudotyped virus produced in 293T cells (HIV-1).
Experiment [13] addresses HIV-1 426c.TM1 (N276D.N460D.N463D) Env on Env-pseudotyped virus produced in 293T cells (HIV-1).

As for “426c N276D gp140 (293T), uncleaved soluble trimer (domain or fragment)”, in [1], the pKd (commonly −log10 of the Kd, conventionally taken in molar units) is 7.23; the koff (commonly the first-order rate constant of dissociation) turned out to be 0.000193 s⁻¹; the kon – broadly, the rate constant with which the complex forms – stood at 9010 M⁻¹ s⁻¹.
In the case of “426c N276D gp140 (GnT1-), uncleaved soluble trimer (domain or fragment)”, in experiment [1], the pKd is 6.75, the koff is 0.000739 s⁻¹ and the kon came to 11100 M⁻¹ s⁻¹.
As to “TM1 gp140 (293T), uncleaved soluble 426c trimer (domain or fragment)”, in [1], the pKd was 7.53, the koff stood at 0.000148 s⁻¹ and the kon is 5030 M⁻¹ s⁻¹.
As to “TM1 gp140 (GnT1-), uncleaved soluble 426c trimer (domain or fragment)”, in [1], the pKd is 7.37, the koff came to 0.000229 s⁻¹ and the kon came to 5370 M⁻¹ s⁻¹.
With germline-reverted 3BNC117 (antibody), the IC50 of neutralization of the Env-pseudotyped virus in TZM-bl cells in [2], in experiment [3], in experiment [4], in [5], in experiment [6] and in experiment [7] was above 25 mg/L throughout.
In the case of germline-reverted 12A12 (antibody), the IC50 of neutralization of the Env-pseudotyped virus in TZM-bl cells in experiment [2] is 0.63 mg/L; in experiment [3], above 25 mg/L; in [4], above 25 mg/L; in experiment [5], above 25 mg/L; in experiment [6] it was above 25 mg/L; in experiment [7], above 25 mg/L.
Turning to germline-reverted VRC01 (antibody), the IC50 of neutralization of the Env-pseudotyped virus in TZM-bl cells in [8] was above 50 mg/L; in experiment [9] it was above 50 mg/L; in [10], above 50 mg/L; in experiment [2] it was 0.36 mg/L; in [3] it was above 25 mg/L; in experiment [11] it was above 50 mg/L. In addition, the IC50 of neutralization of the Env-pseudotyped virus in TZM-bl cells in [4] is above 50 mg/L; in experiment [5], 1.37 mg/L; in [12], above 50 mg/L; in experiment [6], 0.99 mg/L; in experiment [13], above 50 mg/L; in experiment [7], above 50 mg/L.
Turning to germline-reverted VRC03 (antibody), the IC50 of neutralization of the Env-pseudotyped virus in TZM-bl cells in [2], in experiment [3], in experiment [4], in experiment [5], in [6] and in [7] was above 25 mg/L throughout.
Consider germline-reverted VRC04 (antibody), for which the IC50 of neutralization of the Env-pseudotyped virus in TZM-bl cells in [2], in [3], in experiment [4], in experiment [5], in experiment [6] and in experiment [7] was above 25 mg/L in each case.
Regarding germline-reverted VRC07 (antibody), the IC50 of neutralization of the Env-pseudotyped virus in TZM-bl cells in [2] was 1.7 mg/L; in experiment [3], above 25 mg/L; in experiment [4], above 25 mg/L; in experiment [5], 1.6 mg/L; in [6] it was 0.76 mg/L; in [7] it was above 25 mg/L.
For germline-reverted VRC18b (antibody), the IC50 of neutralization of the Env-pseudotyped virus in TZM-bl cells in [2] is 17.3 mg/L; in experiment [3], above 25 mg/L; in experiment [4], above 25 mg/L; in [5] it was 23 mg/L; in [6], above 25 mg/L; in [7], above 25 mg/L.
In the case of germline-reverted VRC20 (antibody), the IC50 of neutralization of the Env-pseudotyped virus in TZM-bl cells was 0.03 mg/L in experiment [2]; 2.39 mg/L in experiment [3]; above 25 mg/L in experiment [4]; 4.6 mg/L in [5]; 10.3 mg/L in experiment [6]; above 25 mg/L in [7].
Take germline-reverted VRC23 (antibody): the IC50 of neutralization of the Env-pseudotyped virus in TZM-bl cells in experiment [2], in [3], in experiment [4], in experiment [5], in [6] and in [7] was above 25 mg/L in each case.
